# From publication PMC10636567
# What was measured:
# [1] = molecular target: human LGI1–FLAG (leucine-rich, glioma inactivated 1 protein) (human) (UniProt O95970); assay: co-IP; HEK293T co-transfected; lysis 24 h after transfection in 20 mM Tris-HCl pH 8.0, 1 mM EDTA, 0.5% Fos-Choline-14; PSD-95-FLAG or LGI1-FLAG precipitated with FLAG-M2 agarose, washed with 100 mM NaCl, 1% Triton X-100, eluted with FLAG peptide; western blot, band intensities; n = 3
# [2] = molecular target: rat PSD-93-GFP (rat) (UniProt Q63622); assay: co-IP; HEK293T co-transfected; GFP-tagged MAGUK proteins precipitated with anti-GFP antibody; western blot
# [3] = molecular target: rat SAP102-GFP (rat) (UniProt Q62936); assay: as above
# [4] = molecular target: rat PSD-95-FLAG (rat) (UniProt P31016); assay: co-IP; HEK293T co-transfected; lysis 24 h after transfection in 20 mM Tris-HCl pH 8.0, 1 mM EDTA, 0.5% Fos-Choline-14; PSD-95-FLAG or LGI1-FLAG precipitated with FLAG-M2 agarose, washed with 100 mM NaCl, 1% Triton X-100, eluted with FLAG peptide; western blot, band intensities; n = 3
# Sequence of rat PSD-95-FLAG (rat) (P31016 whole entry): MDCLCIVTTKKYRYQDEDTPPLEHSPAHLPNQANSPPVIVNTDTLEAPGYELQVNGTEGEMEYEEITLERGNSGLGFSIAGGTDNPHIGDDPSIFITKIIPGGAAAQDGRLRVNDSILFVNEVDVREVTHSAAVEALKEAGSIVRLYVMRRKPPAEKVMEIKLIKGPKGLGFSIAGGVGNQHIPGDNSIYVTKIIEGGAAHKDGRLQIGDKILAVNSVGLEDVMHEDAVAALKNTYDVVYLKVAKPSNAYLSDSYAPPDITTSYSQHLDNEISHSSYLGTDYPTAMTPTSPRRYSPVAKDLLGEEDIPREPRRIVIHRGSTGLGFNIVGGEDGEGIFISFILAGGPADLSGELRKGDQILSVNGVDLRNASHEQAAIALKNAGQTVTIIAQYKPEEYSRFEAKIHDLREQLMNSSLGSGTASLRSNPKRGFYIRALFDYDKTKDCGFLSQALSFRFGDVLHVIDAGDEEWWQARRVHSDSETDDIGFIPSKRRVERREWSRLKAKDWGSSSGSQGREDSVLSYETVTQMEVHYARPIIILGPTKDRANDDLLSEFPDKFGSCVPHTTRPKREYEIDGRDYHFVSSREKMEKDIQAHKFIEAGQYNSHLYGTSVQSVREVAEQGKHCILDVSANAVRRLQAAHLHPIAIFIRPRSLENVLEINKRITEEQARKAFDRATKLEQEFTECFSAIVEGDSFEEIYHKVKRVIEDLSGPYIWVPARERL
# Sequence of human LGI1–FLAG (leucine-rich, glioma inactivated 1 protein) (human) (O95970 35-557): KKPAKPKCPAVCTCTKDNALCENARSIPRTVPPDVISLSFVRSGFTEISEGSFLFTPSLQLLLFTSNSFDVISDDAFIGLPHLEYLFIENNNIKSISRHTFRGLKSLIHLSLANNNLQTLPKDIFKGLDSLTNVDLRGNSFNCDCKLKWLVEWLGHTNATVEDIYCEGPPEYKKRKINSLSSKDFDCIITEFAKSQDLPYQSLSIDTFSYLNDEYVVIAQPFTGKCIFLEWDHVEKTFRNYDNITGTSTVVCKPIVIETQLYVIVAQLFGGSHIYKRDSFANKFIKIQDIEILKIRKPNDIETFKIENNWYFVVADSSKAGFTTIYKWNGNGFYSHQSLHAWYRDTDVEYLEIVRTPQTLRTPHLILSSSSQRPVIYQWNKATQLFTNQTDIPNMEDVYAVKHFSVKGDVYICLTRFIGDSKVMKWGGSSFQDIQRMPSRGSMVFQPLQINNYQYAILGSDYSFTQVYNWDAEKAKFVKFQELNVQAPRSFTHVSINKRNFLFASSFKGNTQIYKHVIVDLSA
# Sequence of rat SAP102-GFP (rat) (Q62936 whole entry): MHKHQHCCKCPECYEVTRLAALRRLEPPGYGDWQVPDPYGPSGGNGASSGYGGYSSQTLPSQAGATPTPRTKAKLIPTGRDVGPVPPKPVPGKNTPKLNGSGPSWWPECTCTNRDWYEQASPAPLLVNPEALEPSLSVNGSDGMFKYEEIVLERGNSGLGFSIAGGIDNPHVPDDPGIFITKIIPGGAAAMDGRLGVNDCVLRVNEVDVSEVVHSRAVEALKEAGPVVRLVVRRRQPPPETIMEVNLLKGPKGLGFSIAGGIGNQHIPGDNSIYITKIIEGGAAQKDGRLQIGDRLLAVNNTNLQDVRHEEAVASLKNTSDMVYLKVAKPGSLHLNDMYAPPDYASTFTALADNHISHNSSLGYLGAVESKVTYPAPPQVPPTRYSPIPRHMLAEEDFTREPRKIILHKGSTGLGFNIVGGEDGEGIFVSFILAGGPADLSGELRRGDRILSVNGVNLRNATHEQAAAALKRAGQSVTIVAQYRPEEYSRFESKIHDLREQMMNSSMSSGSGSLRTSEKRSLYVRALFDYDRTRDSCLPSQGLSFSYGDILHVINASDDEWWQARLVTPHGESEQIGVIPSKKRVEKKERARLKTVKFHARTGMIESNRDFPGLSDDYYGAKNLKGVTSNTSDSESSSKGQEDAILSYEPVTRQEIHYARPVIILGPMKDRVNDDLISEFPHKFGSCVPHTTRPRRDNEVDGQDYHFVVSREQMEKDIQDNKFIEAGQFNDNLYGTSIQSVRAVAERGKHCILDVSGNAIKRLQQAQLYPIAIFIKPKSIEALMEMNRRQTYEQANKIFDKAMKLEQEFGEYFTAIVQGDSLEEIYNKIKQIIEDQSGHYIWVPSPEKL
# Sequence of rat PSD-93-GFP (rat) (Q63622 whole entry): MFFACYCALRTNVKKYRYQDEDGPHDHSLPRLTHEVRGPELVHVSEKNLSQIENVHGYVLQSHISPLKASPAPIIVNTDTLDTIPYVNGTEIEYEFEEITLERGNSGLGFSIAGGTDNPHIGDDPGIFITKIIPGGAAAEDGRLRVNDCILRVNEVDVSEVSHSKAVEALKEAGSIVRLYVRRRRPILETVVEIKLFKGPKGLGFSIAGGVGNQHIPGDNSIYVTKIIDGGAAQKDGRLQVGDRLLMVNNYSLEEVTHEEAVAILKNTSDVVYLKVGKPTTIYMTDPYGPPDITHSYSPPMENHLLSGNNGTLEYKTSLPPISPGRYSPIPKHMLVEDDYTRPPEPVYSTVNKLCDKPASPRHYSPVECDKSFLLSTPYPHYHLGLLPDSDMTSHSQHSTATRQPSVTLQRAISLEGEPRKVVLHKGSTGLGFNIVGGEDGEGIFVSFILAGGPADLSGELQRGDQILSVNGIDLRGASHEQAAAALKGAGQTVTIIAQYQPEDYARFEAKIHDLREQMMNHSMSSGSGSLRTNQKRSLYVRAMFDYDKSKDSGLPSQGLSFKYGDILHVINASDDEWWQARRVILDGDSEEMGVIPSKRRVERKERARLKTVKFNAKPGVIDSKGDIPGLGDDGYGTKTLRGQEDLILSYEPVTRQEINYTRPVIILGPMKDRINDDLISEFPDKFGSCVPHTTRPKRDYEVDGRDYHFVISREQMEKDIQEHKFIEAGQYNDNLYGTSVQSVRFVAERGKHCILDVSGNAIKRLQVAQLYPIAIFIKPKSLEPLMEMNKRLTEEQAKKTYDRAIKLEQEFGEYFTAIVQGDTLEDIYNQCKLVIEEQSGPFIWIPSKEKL
"co-immunoprecipitated amount, percent of wild type [1] [%]","co-immunoprecipitated amount, percent of wild type [2] [%]","co-immunoprecipitated amount, percent of wild type [3] [%]","co-immunoprecipitated amount, percent of wild type [4] [%]",Substance
40,,,,ADAM22 C401Y variant (from UniProt Q9P0K1 26-906) (receptor)
75,20,20,20,human ADAM22 S905F variant (from UniProt Q9P0K1-1 26-906) (receptor)
